Legend:
[1] = biological target: the molecule itself; experiment: AUC; sedimentation velocity, van Holde–Weischet analysis; 7.5 μM Vps75 with 0, 0.5 and 1.0 equivalent of Rtt109; 20 mM Tris pH 7.5, 150 mM NaCl, 0.5 mM TCEP, 20°C
[2] = biological target: the molecule itself; experiment: AUC; sedimentation velocity, van Holde–Weischet analysis; 7.5 μM Vps75 with 0, 0.5 and 1.0 equivalent of Rtt109; 20 mM Tris pH 7.5, 300 mM NaCl, 0.5 mM TCEP, 20°C
[3] = biological target: T1, Xenopus laevis histones H3-H4 (wild type), refolded (Xenopus laevis, UniProt P84233 1-136; P62799 1-103); experiment: AUC; sedimentation velocity; 0.5 or 1 equivalent of H3-H4 or H3DM-H4 titrated against Vps75–Rtt109 reconstituted at 2:2 or 2:1 (relative to 7.5 μM Vps75), with 2:2 mixes of Vps75 and histones for reference; 20 mM Tris pH 7.5, 150 mM NaCl, 0.5 mM TCEP, 20°C; details: both partners purified
T1 construct: histone H3, Xenopus laevis, wild type; histone H4, Xenopus laevis; One H3-H4 dimer is the unit used for concentrations and equivalents; it can form the (H3-H4)2 tetramer; also called (H3-H4)2 tetramer; H3-H4 dimer; source: bought unfolded: the Histone Source at Colorado State University

[4] = biological target: the molecule itself; experiment: SEC-MALS; anion exchange peaks P1, P2, P3 of co-expressed, co-purified Vps75–Rtt109, 20 μM; Superdex 200 Increase 10/300 GL; 20 mM Tris–HCl pH 7.5, 300 mM NaCl, 0.5 mM TCEP

B1: Vps75 (Saccharomyces cerevisiae), individually expressed and purified (natural protein, UniProt P53853 1-264, looked up)
chain: MMSDQENENEHAKAFLGLAKCEEEVDAIEREVELYRLNKMKPVYEKRDAYIDEIAEFWKIVLSQHVSFANYIRASDFKYIDTIDKIKVEWLALESEMYDTRDFSITFHFHGIEGDFKEQQVTKVFQIKKGKDDQEDGILTSEPVPIEWPQSYDSINPDLIKDKRSPEGKKKYRQGMKTIFGWFRWTGLKPGKEFPHGDSLASLFSEEIYPFCVKYYAEAQRDLEDEEGESGLSADGDSEDDDGSLGEVDLPLSDEEPSSKKRKV
notes: Vps75, histone chaperone, Saccharomyces cerevisiae; also called Vps75 dimer; Vps75 tetramer; source: individually expressed and purified as previously described (Park et al, 2008)
stoichiometry N [1]: 4 chains of Vps75 (tetramer) | stoichiometry N [2]: 2 chains of Vps75 (dimer) | binding result [3]: binds

B2: Vps75 co-expressed with his–Rtt109 from pRSFDuet-1 (natural protein, Saccharomyces cerevisiae, UniProt P53853 1-264, looked up)
chain: MMSDQENENEHAKAFLGLAKCEEEVDAIEREVELYRLNKMKPVYEKRDAYIDEIAEFWKIVLSQHVSFANYIRASDFKYIDTIDKIKVEWLALESEMYDTRDFSITFHFHGIEGDFKEQQVTKVFQIKKGKDDQEDGILTSEPVPIEWPQSYDSINPDLIKDKRSPEGKKKYRQGMKTIFGWFRWTGLKPGKEFPHGDSLASLFSEEIYPFCVKYYAEAQRDLEDEEGESGLSADGDSEDDDGSLGEVDLPLSDEEPSSKKRKV
notes: Vps75, Saccharomyces cerevisiae; multiple cloning site 2 of pRSFDuet-1; source: E. coli Rosetta (DE3) pLysS, co-expressed with his–Rtt109, in lysate; co-purified (HisTrap, MonoQ)
stoichiometry N [4]: 2 chains of Vps75 (dimer)

Reference: publication PMC7494816, “Stoichiometry of Rtt109 complexes with Vps75 and histones H3-H4” (Life Science Alliance, 2020)
